Biological target: CryIAb toxin of Bacillus thuringiensis (Bacillus thuringiensis, UniProt P0A370 29-607, 125I-labeled (probe in blots and in the cell binding assay; the unlabeled toxin was the competitor))

B1: Recombinant BT-R1 protein expressed from the BT-R1 cDNA in pcDNA3 in mammalian cells (receptor)
chain: QERCGYMTAIPRLPRPDNLPVLNFEGQTWSQRPLLPAPERDDLCMDAYHVITANLGTQVIYMDEEIEDEITIAILNYNGPSTPFIELPFLSGSYNLLMPVIRRVDNGEWHLIITQRQHYELPGMQQYMFNVRVDGQSLVAGVSLAIVNIDDNAPIIQNFEPCRVPELGEPGLTECTYQVSDADGRISTEFMTFRIDSVRGDEETFYIERTNIPNQWMWLNMTIGVNTSLNFVTSPLHIFSVTALDSLPNTHTVTMMVQVANVNSRPPRWLEIFAVQQFEEKSYQNFTVRAIDGDTEINMPINYRLITNEEDTFFSIEALPGGKSGAVFLVSPIDRDTLQREVFPLTIVAYKYDEEAFSTSTNVVIIVTDINDQRPEPIHKEYRLAIMEETPLTLNFDKEFGFHDKDLGQNAQYTVRLESVDPPGAAEAFYIAPEVGYQRQTFIMGTLNHSMLDYEVPEFQSITIRVVATDNNDTRHVGVALVHIDLINWNDEQPIFEHAVQTVTFDETEGEGFFVAKAVAHDRDIGDVVEHTLLGNAVNFLTIDKLTGDIRVSANDSFNYHRESELFVQVRATDTLGEPFHTATSQLVIRLNDINNTPPTLRLPRGSPQVEENVPDGHVITQELRATDPDTTADLRFEINWDTSFATKQGRQANPDEFRNCVEIETIFPEINNRGLAIGRVVAREIRHNVTIDYEEFEVLSLTVRVRDLNTVYGDDYDESMLTITIIDMNDNAPVWVEGTLEQNFRVREMSAGGLVVGSVRADDIDGPLYNQVRYTIFPREDTDKDLIMIDFLTGQISVNTSGAIDADTPPRFHLYYTVVASDRCSTEDPADCPPDPTYWETEGNITIHITDTNNKVPQAETTKFDTVVYIYENATHLDEVVTLIASDLDRDEIYHTVSYVINYAVNPRLMNFFSVNRETGLVYVDYETQGSGEVLDRDGDEPTHRIFFNLIDNFMGEGEGNRNQNDTEVLVILLDVNDNAPELPPPSELSWTISENLKQGVRLEPHIFAPDRDEPDTDNSRVGYEILNLSTERDIEVPELFVMIQIANVTGELETAMDLKGYWGTYAIHIRAFDHGIPQMSMNETYELIIHPFNYYAPEFVFPTNDAVIRLARERAVINGVLATVNGEFLERISATDPDGLHAGVVTFQVVGDEESQRYFQVVNDGENLGSLRLLQAVPEEIREFRITIRATDQGTDPGPLSTDMTFRVVFVPTQGEPRFASSEHAVAFIEKSAGMEESHQLPLAQDIKNHLCEDDCHSIYYRIIDGNSEGHFGLDPVRNRLFLKKELIREQSASHTLQVAASNSPDGGIPLPASILTVTVTVREADPRPVFVRELYTAGISTADSIGRELLRLHATQSEGSAITYAIDYDTMVVDPSLEAVRQSAFVLNAQTGVLTLNIQPTATMHGLFKFEVTATDTAGAQDRTDVTVYVVSSQNRVYFVFVNTLQQVEDNRDFIADTFSAGFNMTCNIDQVVPANDPVTGVALEHSTQMRGHFIRDNVPVLADEIEQIRSDLVLLSSIQTTLAARSLVLQDLLTNSSPDSAPDSSLTVYVLASLSAVLGFMCLVLLLTFIIRTRALNRRLEALSMTKYGSLDSGLNRAGIAAPGTNKHTVEGSNPIFNEAIKTPDLDAISEGSNDSDLIGIEDLPHFGNVFMDPEVNEKANGYPEVANHNNNFAFNPTPFSPEFVNGQFRKI
modifications: N-glycosylated (210 kD)
  Kd: 1.01 nM
